Legend:
Conditions in all cases: protein: recombinant; tags: C-terminal 6xHis; label: 32P end label; blunt
PilG1-60 = PilG1-60 (Neisseria meningitidis MC58, UniProt Q7DDR1 1-60); assay: South-western; Optimized EMSA: 50 mM HEPES pH 7.5, 100 mM NaCl, 5 mM MgCl2, 1 mM DTT, 10% glycerol, 0.05% DDM, on ice 15 min, 0.45 nM DNA; first EMSA: 25 mM NaH2PO4 pH 8.0, 150 mM NaCl, 1 mM DTT, 10% glycerol, 0.05% DDM, on ice
PilG257-410 = PilG257-410 (Neisseria meningitidis MC58, UniProt Q7DDR1 257-410); assay: as above
PilG166-410 = PilG166-410 (Neisseria meningitidis MC58, UniProt Q7DDR1 166-410); assay: as above
PilG30-80 = PilG30-80 (Neisseria meningitidis MC58, UniProt Q7DDR1 30-80); assay: as above
PilG EEE39-41AAA = PilG EEE39-41AAA (Neisseria meningitidis MC58, UniProt Q7DDR1 1-410, E39A;E40A;E41A); assay: South-western; increased vs FL per text; Optimized EMSA: 50 mM HEPES pH 7.5, 100 mM NaCl, 5 mM MgCl2, 1 mM DTT, 10% glycerol, 0.05% DDM, on ice 15 min, 0.45 nM DNA; first EMSA: 25 mM NaH2PO4 pH 8.0, 150 mM NaCl, 1 mM DTT, 10% glycerol, 0.05% DDM, on ice
PilG1-80 = PilG1-80 (Neisseria meningitidis MC58, UniProt Q7DDR1 1-80); assay: EMSA; 5 mM MgCl2; Optimized EMSA: 50 mM HEPES pH 7.5, 100 mM NaCl, 5 mM MgCl2, 1 mM DTT, 10% glycerol, 0.05% DDM, on ice 15 min, 0.45 nM DNA; first EMSA: 25 mM NaH2PO4 pH 8.0, 150 mM NaCl, 1 mM DTT, 10% glycerol, 0.05% DDM, on ice
PilG Q55A = PilG Q55A (Neisseria meningitidis MC58, UniProt Q7DDR1 1-410, Q55A); assay: South-western; same as FL; Optimized EMSA: 50 mM HEPES pH 7.5, 100 mM NaCl, 5 mM MgCl2, 1 mM DTT, 10% glycerol, 0.05% DDM, on ice 15 min, 0.45 nM DNA; first EMSA: 25 mM NaH2PO4 pH 8.0, 150 mM NaCl, 1 mM DTT, 10% glycerol, 0.05% DDM, on ice
PilG SS62-63AA = PilG SS62-63AA (Neisseria meningitidis MC58, UniProt Q7DDR1 1-410, S62A;S63A); assay: as above
PilG FL = PilG FL (Neisseria meningitidis MC58, UniProt Q7DDR1 1-410); assay: EMSA; optimized EMSA; R2 0.96?; Optimized EMSA: 50 mM HEPES pH 7.5, 100 mM NaCl, 5 mM MgCl2, 1 mM DTT, 10% glycerol, 0.05% DDM, on ice 15 min, 0.45 nM DNA; first EMSA: 25 mM NaH2PO4 pH 8.0, 150 mM NaCl, 1 mM DTT, 10% glycerol, 0.05% DDM, on ice
PilG1-178 = PilG1-178 (Neisseria meningitidis MC58, UniProt Q7DDR1 1-178); assay: EMSA; 5 mM MgCl2; DUS+ duplex assigned by Table 2 EMSA footnote; Optimized EMSA: 50 mM HEPES pH 7.5, 100 mM NaCl, 5 mM MgCl2, 1 mM DTT, 10% glycerol, 0.05% DDM, on ice 15 min, 0.45 nM DNA; first EMSA: 25 mM NaH2PO4 pH 8.0, 150 mM NaCl, 1 mM DTT, 10% glycerol, 0.05% DDM, on ice
PilG RKK43-45AAA = PilG RKK43-45AAA (Neisseria meningitidis MC58, UniProt Q7DDR1 1-410, R43A;K44A;K45A); assay: EMSA; extrapolated; about 50% bound at 5 uM per text; Optimized EMSA: 50 mM HEPES pH 7.5, 100 mM NaCl, 5 mM MgCl2, 1 mM DTT, 10% glycerol, 0.05% DDM, on ice 15 min, 0.45 nM DNA; first EMSA: 25 mM NaH2PO4 pH 8.0, 150 mM NaCl, 1 mM DTT, 10% glycerol, 0.05% DDM, on ice

B1: HH7HH8 (dsDNA)
DNA 1: AACAACAACAAATGCCGTCTGAACCAACATGCCGTCTGAAAACAACAACAAC
DNA 2: GTTGTTGTTGTTTTCAGACGGCATGTTGGTTCAGACGGCATTTGTTGTTGTT
binding result (PilG1-60): no binding
binding result (PilG257-410): no binding
binding result (PilG166-410): no binding
binding result (PilG30-80): no binding
binding result (PilG EEE39-41AAA): binds
apparent K (half saturation) (PilG1-80): 283 nM
binding result (PilG Q55A): binds
binding result (PilG SS62-63AA): binds
apparent K (half saturation) (PilG FL): 1070 nM
apparent K (half saturation) (PilG1-178): 269 nM
apparent K (half saturation) (PilG RKK43-45AAA): ~685 µM
